Experimental data: the supplement of paper PMC12764529
± gives the half width of the 95% confidence interval.

What was measured:
[1] = folding stability dG unfold (combined trypsin and chymotrypsin); higher = more stable
Procedure, shortened: (§1)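 Designed mini-proteins with no cysteine and under 80 residues were kept only if AlphaFold2 dimer inter-PAE was above 15. In a PA-tagged cDNA display construct, they were digested with trypsin and chymotrypsin and then sequenced. K50 was inferred by Bayesian fitting of counts, and unfolding free energy was derived per protease or combined against a sequence-predicted unfolded-state K50 and a shared folded-state K50.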

[2] = folding stability dG unfold from trypsin proteolysis; higher = more stable
Procedure, shortened: as §1

[3] = folding stability dG unfold from chymotrypsin proteolysis; higher = more stable
Procedure, shortened: as §1

| Sequence | folding stability dG unfold [1] [kcal/mol] | folding stability dG unfold [2] [kcal/mol] | folding stability dG unfold [3] [kcal/mol] |
| --- | --- | --- | --- |
| SKTIVIELENIEDMTKEELKNLIKELAEKGETVKVTILNKDGKEVKTIEIKPGEIVPFPKGSKVLIKIEKSA [r9_264_TrROS_Hall] | 1.37 ± 0.15 | 1.42 ± 0.062 | 1.49 ± 0.036 |
| SKTYLVKVTIEYGGKTIEIEVEVETLEEALAAVRAALPPEERAQLPPDAKVTVEVYELPEVDEETGELLESA [r9_111_TrROS_Hall] | 3.84 ± 0.059 | 2.83 ± 0.07 | 4.2 ± 0.048 |
| SKTYTAEEIKKLFPNIKKVEVKDGKVRLTVENENGEKFEIEITFEAPKPEPEVEEEVEKKKEEELSEEDLSA [r9_427_TrROS_Hall] | 1.65 ± 0.31 | 1.28 ± 0.061 | 2.62 ± 0.14 |
| SKWTIDIDITYYPEYGVITVTIRYPNSWEQARFDVRSFIHEAGMPIKLEDIEIEQVEGWYEITYTIRIPPSA [r9_164_TrROS] | 3.78 ± 0.39 | 3.49 ± 0.19 | 3.88 ± 0.13 |
| SLDPGEPVYRIKVKIEMWNPNGKPIAEFTIPIRTLEEAKEAIKEMAREIAEKMGHPDMPIRIKDIEIEPYSA [r9_376_TrROS] | 2.27 ± 0.099 | 2.29 ± 0.033 | 2.21 ± 0.045 |
| SLEEKIKEAIENSPPNSEVIVPLPDDRTVKITVTPETVTGDGRRRLRIKVTITIYDPSGTKLGEKVLEIPLS [r1_386_JUSTAS] | 3.69 ± 0.16 | 2.66 ± 0.052 | 4.12 ± 0.17 |
| SLEVAAELGLSVSSLEELETDPEKGTRLLRLTAPTPGATVEVLVEVTTRKDSKGETVPEVRVLAVRTVAPSA [r9_613_JUSTAS] | 1.26 ± 0.07 | 1.15 ± 0.03 | 1.33 ± 0.077 |
| SLGPNEDAILEEEAIIDIDPEAFRKAFGFDVPEDTKVLIITRRRVPANGDIETDPEIYIYDPKTKKFYPISA [r9_349_TrMRF] | 2.29 ± 0.16 | 2.05 ± 0.046 | 2.34 ± 0.067 |
| SLIPIRPLATSPSGDLLIEVPAEEDLVEEIKKYLKEKFPGYTPVEVKPVESPPLYLVLFSHPSGKKVWLGSA [r9_1164_JUSTAS] | 1.24 ± 0.07 | 0.967 ± 0.03 | 1.35 ± 0.082 |
| SLLELAKQANGPLKINVKSEWVTLPDGTPVEIINVEVSQDPNSDVATVTKTVVDPDKDTSSTSTSTIPLGSS [r1_448_JUSTAS] | -0.0266 ± 0.14 | -0.95 ± 0.17 | 0.316 ± 0.077 |
| SLPPSLTYTLKLSHPDGSTVTATVFPGGSLRVTVYAPGGVKVAESEYPVDDLEALMKALGIKEVLSMELASA [r9_1107_JUSTAS] | 2.67 ± 0.13 | 1.93 ± 0.082 | 2.85 ± 0.071 |
| SMEEAIEEAIKKNEEAIAAGGGPVKVELEVPGYRIDLTFSPNGLKITNIEEKNSPDGIPSVKSTSDVPPPSA [r9_308_JUSTAS] | 0.284 ± 0.14 | 0.845 ± 0.085 | -0.503 ± 0.11 |
| SMEIKIEITYDKDTNYLVIKVTIKLKTKTVDKKTKKVTEKEEEITLTLVIKLKPLKPGQKLKLEIKLFPESA [r9_1058_TrROS_Hall] | 4.4 ± 0.44 | 3.24 ± 0.22 | 4.93 ± 0.33 |
| SMEILEMDIEEILSLLPEDIHPDVPYTLTVPGLEIRILDVAPVREEEGGPRPTTVIEVFLPDGPVVFPLESA [r9_279_TrMRF] | 1.11 ± 0.12 | 0.872 ± 0.042 | 1.26 ± 0.069 |
| SMEPGERYRITATRKDGSRVEVEAIPGGVLRARVYLPNGELVGEAEFPVDRPVELLEALGLDELVSVEPESA [r9_1107_TrMRF] | 2.32 ± 0.086 | 2.17 ± 0.051 | 2.42 ± 0.043 |
| SMFRIRFKDGSEFDIELNEDGELTITNKNGKKITLTFKTKEEALKAAEELKKKYPNMKVEIEEVSPEELKSA [r9_1206_TrROS_Hall] | 3.13 ± 0.12 | 2.6 ± 0.059 | 3.504 ± 0.016 |
| SMFRPFPLPDGRPAYDFIIPGLELASSFFPETGRPVLVLRPGGRLGAAPLFAADLDVLFSRPPLVAVEPDSA [r9_205_TrMRF] | 0.999 ± 0.14 | 0.634 ± 0.11 | 1.37 ± 0.17 |
| SMGSITITLPATPEELRELLREKGISPELAPSWEEVKEALKKAFPKNVTVTINPKSPVSEEAAKAAREGSSA [r9_74_JUSTAS] | 1.13 ± 0.064 | 0.462 ± 0.038 | 1.45 ± 0.017 |
